Data taken from patent US11938198B2, “Treatment of heart disease by disruption of the anchoring of PP2A” (University of Miami, priority 2019, dated 2024).

What was measured:
[1] = tested on: full-length wildtype mAKAP (GFP-tagged) expressed in HEK293 cells
[2] = tested on: full-length mAKAP mutant with an internal deletion of residues 2053-2073 comprising the PKA binding site (ΔPKA)
[3] = tested on: mAKAP-associated phosphatase (PP2A); experiment: Phosphatase activity of mAKAP complexes immunoprecipitated from adult rat heart extracts ([32P]histone); format: biochemical; conditions: 50 μM CPT-cAMP, 5 min pre-incubation
Protocol: (§1) For immunoprecipitation of endogenous, native mAKAP complexes, adult rat hearts (Pel-Freeze) were homogenized in 10 ml HSE buffer. After centrifugation at 15,000×g for 25 minutes, clarified extracts were immunoprecipitated as above.
(§2) Phosphatase Assay—Phosphatase activity was measured according to the method of Ahn et al. using ^32P-labeled histone as substrate (Ahn et al. 2007). Histone was radiolabeled in reactions containing 250 mM MOPS, pH 7.4, 2.5 mM MgAc, 100 mM β-mercaptoethanol, purified PKA catalytic subunit, 1 μM ATP, 20 μM histone, and 1 mCi [γ-^32P]ATP (6000 Ci/mmol). The reaction was terminated by the addition of 50% TCA, and [^32P]histone was purified from free radionucleotide by centrifugation. The [^32P]histone pellet was washed with 1 ml of ether/ethanol/HCL (4:1:0.1) once and 1 ml of ether/ethanol (4:1) three times. The substrate was then suspended in 200 μl PP2A assay buffer (25 mM Tris, pH 7.4, 1 mM DTT, and 10 mM MgCl2) before precipitation with 50% TCA. After repeated washing, the [^32P]histone was suspended in 200 μl PP2A buffer.
(§3) To measure phosphatase activity, immunoprecipitated protein complexes were washed twice in HSE buffer and once in PP2A reaction buffer. […] TCA supernatants containing released ^32PO4 were measured by scintillation counting.

[4] = tested on: mAKAP-associated phosphodiesterase; experiment: PDE activity of native mAKAP complexes immunoprecipitated from adult rat heart extracts; format: biochemical
Protocol: as §1
PDE assay—PDE activity associated with immunoprecipitated protein complexes was assayed according to the method by Beavo et al. (Beavo, Bechtel, and Krebs 1974). Samples were assayed in 45 μl PDE buffer A (100 mM MOPS, pH 7.5, 4 mM EGTA, 1.0 mg/ml bovine serum albumin) and 50 μl PDE buffer B [100 mM MOPS, pH 7.5, 75 mM MgAc, 1 μM cAMP and 100,000 cpm [^3H]cAMP (Dupont, NEN)]. Inhibitors were included as indicated.

SRF Ser^103 [5] = experiment: SRF Ser103 phosphorylation in neonatal rat ventricular myocytes (NRVM); format: cell-based; conditions: 1 hour, 1 μM OA or 1 μg/ml CsA
Protocol: (§4) Neonatal Rat Ventricular Myocyte Culture: 1-3 day old Sprague-Dawley rats were decapitated, and the excised hearts placed in 1× ADS Buffer (116 mM NaCl, 20 mM HEPES, 1 mM NaH2PO4, 5.5 mM glucose, 5.4 mM KCl, 0.8 mM MgSO4, pH 7.35). The atria were carefully removed and the blood washed away. The ventricles were minced and incubated with 15 mL 1× ADS Buffer containing 3.3 mg type II collagenase (Worthington, 230 U/mg) and 9 mg Pancreatin (Sigma) at 37° C. with gentle shaking. After 15 minutes, the dissociated cardiac myocytes were separated by centrifugation at 50 g for 1 minute, resuspended in 4 mL horse serum and incubated at 37° C. with occasional agitation. The steps for enzymatic digestion and isolation of myocytes were repeated 10-12 times to maximize yield. The myocytes were pooled and spun down again at 50 g for 2 minutes and resuspended in Maintenance Medium (DMEM:M199, 4:1) supplemented with 10% horse serum and 5% fetal bovine serum. To remove any contaminating fibroblasts, the cells were pre-plated for 1 hour before plating on gelatin-coated tissue culture plastic ware. This procedure yields >90% pure cardiac myocytes. After 1 day culture, the media was changed to maintenance medium containing 0.1 mM bromodeoxyuridine to suppress fibroblast growth. […]

[6] = target: T1, mAKAP-associated phosphatase (PP2A) (Rattus norvegicus, UniProt P63331); experiment: Phosphatase activity of mAKAP complexes immunoprecipitated from adult rat heart extracts ([32P]histone); format: biochemical; conditions: 10 nM
T1 construct: For immunoprecipitation of endogenous, native mAKAP complexes; tissue Pel-Freeze; host or cells: adult rat heart
T1 sequence (P63331 whole entry): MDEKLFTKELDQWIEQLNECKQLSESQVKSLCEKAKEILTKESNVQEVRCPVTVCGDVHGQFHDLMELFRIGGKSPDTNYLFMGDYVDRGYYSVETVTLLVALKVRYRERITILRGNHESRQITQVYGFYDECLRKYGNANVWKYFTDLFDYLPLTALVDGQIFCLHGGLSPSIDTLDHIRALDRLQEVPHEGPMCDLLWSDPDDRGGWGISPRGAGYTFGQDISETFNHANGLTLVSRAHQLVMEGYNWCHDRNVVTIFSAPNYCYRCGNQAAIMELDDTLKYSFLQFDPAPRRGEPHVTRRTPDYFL
Protocol: as §1, §2, §3

PDE4D3 Ser-54 = PDE4D3 Ser-54 phosphorylation in mAKAP immunoprecipitates from transfected HEK293 cells (phospho-specific immunoblot); format: cell-based; conditions: HEK293 cells over-expressing mAKAP and PDE4D3; OA or 500 μM CsA for 30 min
mAKAP-bound PDE4D3 = experiment: PDE activity associated with mAKAP immunoprecipitates from transfected HEK293 cells ([3H]cAMP); format: cell-based; conditions: 300 μM OA 30 min then 5 μM Fsk 10 min
Protocol: Immunoprecipitation—HEK293 cells were used in this project as a heterologous system lacking mAKAP in which the various wildtype and mutant proteins could be easily expressed. Cells cultured on 60 mm plates were transfected at 50%-70% confluency by the calcium phosphate method, using 6 μg of each DNA construct per plate. Cells were harvested 24 hours after transfection in 0.5 ml HSE buffer (HEPES, pH 7.4, 150 mM NaCl, 5 mM EDTA, 1% Triton X-100 and protease inhibitors). Supernatants were incubated with 3 μg antibody and 15 μl prewashed protein A- or G-agarose beads. Following overnight incubation at 4° C., the immunoprecipitates were washed three times with the same buffer. Bound proteins were analyzed by immunoblotting. […]
As phosphorylation of PDE4D3 Ser-54 increases phosphodiesterase activity 2 fold (Sette and Conti 1996), whether OA treatment would also increase the activity of mAKAP-bound PDE4D3 was tested. mAKAP complexes were immunoprecipitated from transfected HEK293 cells and assayed for associated phosphodiesterase activity (FIG. 8B). mAKAP-associated phosphodiesterase activity in untreated cells was detected only when mAKAP was co-expressed with PDE4D3 (FIG. 8B, bar 1, and data not shown), consistent with a previous observation that PDE4D3 accounts for all of the phosphodiesterase activity associated with mAKAP in cardiac myocytes (Dodge et al. 2001).

mAKAPβ-PP2A association = experiment: Co-immunoprecipitation of endogenous mAKAPβ-PP2A in myocytes; format: cell-based, rat; conditions: NRVM infected with adenovirus
Protocol: as §4

[7] = tested on: adult rat ventricular myocytes (ARVM); experiment: ARVM morphologic hypertrophy (cell width and length by immunocytochemistry); format: cell-based; conditions: adenoviral expression; for Iso-induced ARVM hypertrophy: 10 μM Iso 24 hours
Protocol: Adult rat ventricular myocyte isolation and culture: 2-3 month old rats were anesthetized using Ketamine (80-100 mg/kg) and Xylazine (5-10 mg/kg) IP following 1000 U heparinization for cardiac excision. The heart was transferred immediately into chilled perfusion buffer (NaCl 120 mM, KCl 5.4 mM, Na2HPO4·7H2O 1.2 mM, NaHCO320.0 mM, MgCl2·6H2O 1.6 mM, Taurine 5 mM, Glucose 5.6 mM, 2,3-Butanedione monoxime 10 mM) pre-equilibrated with 95% O2 and 5% CO2. After removal of extraneous tissue, the heart was attached via the aorta to a Harvard Langendorff apparatus cannula. Ca^2+-free perfusion was used to flush out remaining blood with a constant rate of 8-10 mL/min at 37° C. The heart was then digested through circulatory perfusion with 50 mL perfusion buffer containing 125 mg type II collagenase (Worthington, 245 U/mg), 0.1 mg protease (Sigma type XIV) and 0.1% BSA. After perfusion, the atria were removed and the ventricular myocytes dissociated by slicing and repetitive pipetting. The debris was filtered by a 200 μm nylon mesh, and the myocytes collected by one minute centrifugation at 50 g. Ca^2+ concentration in the buffer was gradually recovered to 1.8 mM and the myocytes were resuspended in ACCT medium (M199 Medium (Invitrogen 11150-059), Creatine 5 mM, L-carnitine 2 mM, Taurine 5 mM, HEPES 25 mM, 2,3-Butanedione monoxime 10 mM, BSA 0.2% and 1×Insulin-Transferrin-Selenium Supplement) and plated on 10 μg/ml laminin pre-coated dishes. Cells were washed with ACCT medium 1.5 hours after plating and subjected to adenoviral infection or siRNA transfection, in which 100-200 Multiplicity of Infection (MOI) of adenovirus and 100 nmol/L siRNA mixed with Dharmafect1 (Dharmacon) were used, respectively. Adrenergic agonists were added the next day, with biochemical assay and morphological measurement performed after 24 hours of stimulation.
Immunocytochemistry: Myocytes on coverslips were fixed in 3.7% formaldehyde in PBS for 1 hour, permeabilized with 0.3% Triton X-100, and blocked in PBS containing 0.2% BSA and 1% horse serum. The slides were then sequentially incubated for 1 hour with primary and Alexa fluorescent dye-conjugated specific-secondary antibodies (Invitrogen, 1:1000) diluted in blocking buffer. The slips were washed three times with blocking buffer. 1 μg/mL Hoechst 33258 was included in the last wash stop to label nuclei. Slides were sealed in SlowFade Gold antifade buffer (Invitrogen, S36938) for fluorescent microscopy. Wide-field images were acquired using a Leica DM4000 Microscope.

SRF Ser^103 [8] = experiment: SRF Ser103 phosphorylation in adult rat ventricular myocytes (ARVM); format: cell-based; conditions: 10 μM Iso 1 day
Protocol: Adult rat ventricular myocyte isolation and culture: 2-3 month old rats were anesthetized using Ketamine (80-100 mg/kg) and Xylazine (5-10 mg/kg) IP following 1000 U heparinization for cardiac excision. The heart was transferred immediately into chilled perfusion buffer (NaCl 120 mM, KCl 5.4 mM, Na2HPO4·7H2O 1.2 mM, NaHCO320.0 mM, MgCl2·6H2O 1.6 mM, Taurine 5 mM, Glucose 5.6 mM, 2,3-Butanedione monoxime 10 mM) pre-equilibrated with 95% O2 and 5% CO2. After removal of extraneous tissue, the heart was attached via the aorta to a Harvard Langendorff apparatus cannula. Ca^2+-free perfusion was used to flush out remaining blood with a constant rate of 8-10 mL/min at 37° C. The heart was then digested through circulatory perfusion with 50 mL perfusion buffer containing 125 mg type II collagenase (Worthington, 245 U/mg), 0.1 mg protease (Sigma type XIV) and 0.1% BSA. After perfusion, the atria were removed and the ventricular myocytes dissociated by slicing and repetitive pipetting. The debris was filtered by a 200 μm nylon mesh, and the myocytes collected by one minute centrifugation at 50 g. […]

Sequence of full-length mAKAP mutant with an internal deletion of residues 2053-2073 comprising the PKA binding site (ΔPKA) (chain, as listed by the source mutant): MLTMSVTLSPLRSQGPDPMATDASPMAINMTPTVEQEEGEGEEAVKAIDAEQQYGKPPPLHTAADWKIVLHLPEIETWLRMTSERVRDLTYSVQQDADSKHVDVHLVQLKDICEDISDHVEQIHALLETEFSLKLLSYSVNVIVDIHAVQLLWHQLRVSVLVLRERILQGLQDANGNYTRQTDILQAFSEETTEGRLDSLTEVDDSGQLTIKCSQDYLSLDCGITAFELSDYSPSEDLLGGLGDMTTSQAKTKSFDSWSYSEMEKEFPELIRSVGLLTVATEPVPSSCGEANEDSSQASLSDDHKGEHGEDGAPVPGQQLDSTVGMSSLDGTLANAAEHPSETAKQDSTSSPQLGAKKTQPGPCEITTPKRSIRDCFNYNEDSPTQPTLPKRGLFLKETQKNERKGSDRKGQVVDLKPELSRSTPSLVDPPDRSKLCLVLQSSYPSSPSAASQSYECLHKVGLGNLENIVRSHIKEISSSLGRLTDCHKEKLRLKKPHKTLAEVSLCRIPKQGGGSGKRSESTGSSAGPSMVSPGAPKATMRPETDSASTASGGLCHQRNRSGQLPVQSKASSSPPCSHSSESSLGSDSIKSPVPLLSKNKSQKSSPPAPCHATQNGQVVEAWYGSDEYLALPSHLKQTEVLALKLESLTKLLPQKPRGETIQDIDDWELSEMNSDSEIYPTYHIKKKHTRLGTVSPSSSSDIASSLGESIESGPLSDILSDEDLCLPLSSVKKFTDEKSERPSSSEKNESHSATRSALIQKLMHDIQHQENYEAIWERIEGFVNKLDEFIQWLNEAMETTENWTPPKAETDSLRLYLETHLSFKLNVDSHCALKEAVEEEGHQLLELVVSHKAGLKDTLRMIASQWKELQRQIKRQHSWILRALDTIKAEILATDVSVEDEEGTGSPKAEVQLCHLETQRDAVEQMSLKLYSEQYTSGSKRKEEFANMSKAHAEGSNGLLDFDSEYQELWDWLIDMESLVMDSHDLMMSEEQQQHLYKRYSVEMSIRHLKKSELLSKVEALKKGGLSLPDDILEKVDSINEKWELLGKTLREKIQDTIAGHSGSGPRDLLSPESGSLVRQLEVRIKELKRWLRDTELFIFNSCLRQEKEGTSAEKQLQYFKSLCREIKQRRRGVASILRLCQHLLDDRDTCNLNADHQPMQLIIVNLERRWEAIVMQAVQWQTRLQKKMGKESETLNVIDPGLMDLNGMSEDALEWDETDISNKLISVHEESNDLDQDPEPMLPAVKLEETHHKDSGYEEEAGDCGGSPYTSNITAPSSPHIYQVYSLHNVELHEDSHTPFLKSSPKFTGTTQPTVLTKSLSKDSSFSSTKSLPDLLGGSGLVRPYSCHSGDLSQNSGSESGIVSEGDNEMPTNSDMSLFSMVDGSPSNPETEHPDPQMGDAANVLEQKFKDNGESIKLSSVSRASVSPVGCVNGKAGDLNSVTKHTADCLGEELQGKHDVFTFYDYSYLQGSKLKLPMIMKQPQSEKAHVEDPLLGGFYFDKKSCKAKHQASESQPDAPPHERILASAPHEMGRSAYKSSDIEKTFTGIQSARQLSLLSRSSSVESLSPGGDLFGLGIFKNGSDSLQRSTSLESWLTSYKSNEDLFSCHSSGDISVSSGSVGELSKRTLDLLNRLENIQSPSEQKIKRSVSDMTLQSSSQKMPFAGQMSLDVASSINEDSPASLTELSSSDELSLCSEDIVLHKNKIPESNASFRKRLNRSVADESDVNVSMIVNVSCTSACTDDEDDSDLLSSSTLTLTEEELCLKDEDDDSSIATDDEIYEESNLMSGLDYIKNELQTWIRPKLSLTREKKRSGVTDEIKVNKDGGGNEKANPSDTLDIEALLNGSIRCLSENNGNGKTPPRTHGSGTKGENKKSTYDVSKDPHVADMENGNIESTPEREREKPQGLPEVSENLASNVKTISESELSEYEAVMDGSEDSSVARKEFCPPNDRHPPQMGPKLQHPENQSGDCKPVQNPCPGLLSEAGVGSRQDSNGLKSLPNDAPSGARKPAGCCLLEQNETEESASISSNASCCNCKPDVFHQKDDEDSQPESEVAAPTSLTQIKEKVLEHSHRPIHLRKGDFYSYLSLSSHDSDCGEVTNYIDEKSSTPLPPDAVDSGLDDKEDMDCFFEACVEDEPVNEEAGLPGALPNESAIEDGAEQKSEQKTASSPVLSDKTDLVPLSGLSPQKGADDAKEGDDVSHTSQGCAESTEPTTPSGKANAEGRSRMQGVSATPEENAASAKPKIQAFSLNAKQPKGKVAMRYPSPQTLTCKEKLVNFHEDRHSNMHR
Sequence of full-length wildtype mAKAP (GFP-tagged) expressed in HEK293 cells (chain, as listed by the source): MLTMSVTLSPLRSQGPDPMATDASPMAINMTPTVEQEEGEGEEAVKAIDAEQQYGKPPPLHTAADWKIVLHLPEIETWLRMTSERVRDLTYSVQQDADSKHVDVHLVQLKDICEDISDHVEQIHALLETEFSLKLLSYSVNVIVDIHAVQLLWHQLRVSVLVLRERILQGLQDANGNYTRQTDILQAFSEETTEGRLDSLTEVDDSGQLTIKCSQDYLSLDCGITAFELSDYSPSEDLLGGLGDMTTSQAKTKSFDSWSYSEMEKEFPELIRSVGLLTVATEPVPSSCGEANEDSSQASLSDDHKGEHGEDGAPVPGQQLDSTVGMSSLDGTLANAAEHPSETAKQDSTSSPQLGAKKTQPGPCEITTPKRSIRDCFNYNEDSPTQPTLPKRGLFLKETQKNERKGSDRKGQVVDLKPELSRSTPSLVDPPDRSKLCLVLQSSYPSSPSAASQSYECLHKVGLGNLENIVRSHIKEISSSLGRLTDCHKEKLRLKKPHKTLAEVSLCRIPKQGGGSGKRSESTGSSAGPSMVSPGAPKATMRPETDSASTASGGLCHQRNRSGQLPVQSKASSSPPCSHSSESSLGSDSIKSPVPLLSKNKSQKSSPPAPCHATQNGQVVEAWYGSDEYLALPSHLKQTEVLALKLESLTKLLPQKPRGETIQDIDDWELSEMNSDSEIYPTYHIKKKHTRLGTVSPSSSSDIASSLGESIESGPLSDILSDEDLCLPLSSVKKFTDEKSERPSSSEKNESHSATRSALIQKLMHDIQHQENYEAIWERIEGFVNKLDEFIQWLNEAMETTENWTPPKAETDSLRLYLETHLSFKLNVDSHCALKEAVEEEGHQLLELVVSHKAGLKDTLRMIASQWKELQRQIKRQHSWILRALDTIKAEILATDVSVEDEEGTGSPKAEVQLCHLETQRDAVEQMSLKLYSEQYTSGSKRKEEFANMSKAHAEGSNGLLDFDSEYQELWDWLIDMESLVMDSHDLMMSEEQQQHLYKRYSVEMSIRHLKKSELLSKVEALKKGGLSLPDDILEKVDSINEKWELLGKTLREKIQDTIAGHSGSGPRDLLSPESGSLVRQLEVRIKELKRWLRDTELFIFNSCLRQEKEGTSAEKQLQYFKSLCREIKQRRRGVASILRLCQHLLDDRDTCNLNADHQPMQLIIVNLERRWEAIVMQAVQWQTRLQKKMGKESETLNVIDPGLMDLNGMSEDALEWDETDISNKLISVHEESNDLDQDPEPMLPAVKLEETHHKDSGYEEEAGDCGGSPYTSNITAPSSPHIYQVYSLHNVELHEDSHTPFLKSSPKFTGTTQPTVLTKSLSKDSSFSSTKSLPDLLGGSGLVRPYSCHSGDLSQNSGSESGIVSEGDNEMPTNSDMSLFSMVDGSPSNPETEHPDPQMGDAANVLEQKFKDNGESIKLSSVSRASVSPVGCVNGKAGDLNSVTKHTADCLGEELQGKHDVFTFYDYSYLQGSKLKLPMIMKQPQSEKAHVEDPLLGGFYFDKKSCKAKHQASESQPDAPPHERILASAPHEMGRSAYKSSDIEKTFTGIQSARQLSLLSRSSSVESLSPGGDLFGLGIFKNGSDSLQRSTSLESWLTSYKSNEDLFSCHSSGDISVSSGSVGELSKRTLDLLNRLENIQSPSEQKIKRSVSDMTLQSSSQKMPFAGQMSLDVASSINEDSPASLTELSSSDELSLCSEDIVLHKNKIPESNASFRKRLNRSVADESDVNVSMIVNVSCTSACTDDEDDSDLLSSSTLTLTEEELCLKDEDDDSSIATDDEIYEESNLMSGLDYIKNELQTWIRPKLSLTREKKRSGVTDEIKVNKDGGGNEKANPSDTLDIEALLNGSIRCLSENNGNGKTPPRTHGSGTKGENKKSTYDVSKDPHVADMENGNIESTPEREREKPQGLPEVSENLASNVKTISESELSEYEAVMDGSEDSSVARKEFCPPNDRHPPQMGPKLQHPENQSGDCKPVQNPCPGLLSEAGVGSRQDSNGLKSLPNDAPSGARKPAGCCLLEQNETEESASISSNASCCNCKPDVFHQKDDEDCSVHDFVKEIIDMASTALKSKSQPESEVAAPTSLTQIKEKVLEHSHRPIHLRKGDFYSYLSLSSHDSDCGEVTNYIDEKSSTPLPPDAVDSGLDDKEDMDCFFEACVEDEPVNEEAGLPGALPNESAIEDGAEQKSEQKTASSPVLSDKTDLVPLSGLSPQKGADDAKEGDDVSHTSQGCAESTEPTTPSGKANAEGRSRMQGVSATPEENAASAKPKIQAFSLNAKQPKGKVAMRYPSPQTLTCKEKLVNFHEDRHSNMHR

PKA (cAMP-dependent protein kinase) endogenous in HEK293 cells
phosphatase activity in mAKAP immunoprecipitates after Fsk/IBMX [1]: cAMP elevation increased phosphatase activity in mAKAP complexes 1.7 fold | B56δ Ser-566 phosphorylation in mAKAP immunoprecipitates [2]: B56δ phosphorylation was detected only after FSK/IBMX treatment and only when B56δ was co-expressed with wildtype mAKAP and not the ΔPKA mutant | phosphatase activity in mAKAP immunoprecipitates after Fsk/IBMX [2]: no increase was obtained when B56δ was co-expressed with the mAKAP ΔPKA mutant scaffold

Nc1ncnc2c1nc(Sc1ccc(Cl)cc1)n2[C@@H]1O[C@@H]2COP(=O)([O-])O[C@H]2[C@H]1O.[Na+] [CPT-cAMP, 8-(4-chlorophenylthio)adenosine 3′,5′-cyclic monophosphate]
increase of mAKAP-associated phosphatase activity [3]: 2.5 fold

C=C1[C@@H](O)[C@@H]2O[C@]3(CC[C@H](/C=C/[C@@H](C)[C@@H]4CC(C)=C[C@@]5(O[C@H](C[C@@](C)(O)C(=O)O)CC[C@H]5O)O4)O3)CC[C@H]2O[C@@H]1[C@@H](O)C[C@H](C)[C@H]1O[C@@]2(CCCCO2)CC[C@H]1C [OA, okadaic acid]
increase in mAKAP-associated phosphodiesterase activity when PKA was also inhibited ([4]; 10 nM OA with 50 nM PKI): 60% | increase in mAKAP-associated phosphodiesterase activity ([4]; 10 nM OA, native complexes from adult rat heart): 30% | baseline phosphorylation of SRF Ser^103 (SRF Ser^103 [5]): promoted baseline phosphorylation of SRF Ser^103 | inhibition of mAKAP-associated phosphatase activity [6]: all immunoprecipitated phosphatase activity was inhibited | baseline phosphorylation of PDE4D3 Ser-54 (PDE4D3 Ser-54): increase in the baseline phosphorylation of PDE4D3 Ser-54 | mAKAP-bound PDE4D3 activity, Fsk and OA treatment together (mAKAP-bound PDE4D3): synergistically increased PDE4D3 activity

B1: PBD: myc-tagged mAKAP aa 2134-2314 fragment, PP2A anchoring disruptor, expressed by adenovirus (protein)
chain: MEQKLISEEDLSPGMLTMSVTLSPLRSQTPLPPDAVDSGLDDKEDMDCFFEACVEDEPVNEEAGLPGALPNESAIEDGAEQKSEQKTASSPVLSDKTDLVPLSGLSPQKGADDAKEGDDVSHTSQGCAESTEPTTPSGKANAEGRSRMQGVSATPEENAASAKPKIQAFSLNAKQPKGKVAMRYPSPQTLTCKEKLVNFHEDRHSNMHR
modifications: myc-tagged rat mAKAP PBD
notes: myc-tagged mAKAP aa 2134-2314 fragment, PP2A anchoring disruptor, expressed by adenovirus
endogenous mAKAPβ-PP2A association (mAKAPβ-PP2A association): competed endogenous mAKAPβ-PP2A association | Iso-induced ARVM hypertrophy [7]: attenuated the eccentric hypertrophy | Iso-induced ARVM hypertrophy ([7]; listed as PDB): promoted ARVM concentric hypertrophy | PE-induced ARVM hypertrophy ([7]; 20 μM PE 24 hours): did not enhance nor diminish | basal ARVM morphology ([7]; no drug): no effect | Iso-induced SRF Ser^103 phosphorylation (SRF Ser^103 [8]): potentiated the induction of SRF Ser^103 phosphorylation
